# B1: LCOR (parent)
# chain: PCAGSTSLSHSPGCSSTQGNGRPG
# Variants of: B1
# Test: protein stability index of a GFP-peptide fusion (GPS, HEK-293T) (PSI 1-6); higher = more stable
# Settings: c terminus: a fixed tail appended
# 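Note: lentivirally expressed fusions sorted by FACS into six bins by GFP to DsRed ratio, PSI derived from sequencing read proportions per bin multiplied by bin number.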
row,Variant,protein stability index
1,PCAGSTSLSHSPGCSSTQGNGTPG,3.46
2,PCAGSTSLSHSPGCSSTQGNGMPG,3.78
3,PCAGSTSLSHSPGCSSTQGNGPPG,3.83
4,PCAGSTSLSHSPGCSSTQGNGAPG,4.1
5,PCAGSTSLSHSPGCSSTQGNGGPG,3.06
6,PCAGSTSLSHSPGCSSTQGNGIPG,3.97
7,PHAGSTSLSHSPGCSSTQGNGRPG,4.99
8,PKAGSTSLSHSPGCSSTQGNGRPG,4.48
9,PQAGSTSLSHSPGCSSTQGNGRPG,4.65
10,PAAGSTSLSHSPGCSSTQGNGRPG,2.92
11,PVAGSTSLSHSPGCSSTQGNGRPG,4.04
12,PIAGSTSLSHSPGCSSTQGNGRPG,2.92
13,PNAGSTSLSHSPGCSSTQGNGRPG,4.74
14,PYAGSTSLSHSPGCSSTQGNGRPG,3.55
15,PSAGSTSLSHSPGCSSTQGNGRPG,3.28
16,PCAGSTSLSHSPGCSSTQGNRRPG,3.29
17,PCAGSTSLSHSPGCSSTQGNCRPG,2.85
18,PCAGSTSLSHSPGCSSTQGNTRPG,2.1
19,PCAGSTSLSHSPGCSSTQGNHRPG,2.31
20,PCAGSTSLSHSPGCSSTQGNWRPG,2.34
21,PCAGSTSLSHSPGCSSTQGNKRPG,3.79
22,PCAGSTSLSHSPGCSSTQGNQRPG,3.36
23,PCAGSTSLSHSPGCSSTQGNNRPG,3.57
24,PCAGSTSLSHSPGCSSTQGNIRPG,3.54

row,Variant,protein stability index
1,PCAGSTSLSHSPGCSSTQGNSRPG,2.81
2,PCAGSTSLSHSPGCSSTQGNARPG,3.63
3,PCAGSTSLSHSPGCSSTQGNPRPG,2.53
4,PCAGSTSLSHSPGCSSTQGNFRPG,1.98
5,PCAGSTSLSHSPGCSSTQGNYRPG,2.92
6,PCAGSTSLSHVPGCSSTQGNGRPG,2.86
7,PCAGSTSLSHNPGCSSTQGNGRPG,2.75
8,PCAGSTSLSHCPGCSSTQGNGRPG,1.94
9,PCAGSTSLSHRPGCSSTQGNGRPG,2.53
10,PCAGSTSLSHKPGCSSTQGNGRPG,2.81
11,PCAGSTSLSHAPGCSSTQGNGRPG,2.63
12,PCAGSTSLSHMPGCSSTQGNGRPG,3.28
13,PCAGSTSLSHEPGCSSTQGNGRPG,3.73
14,PCAGSTSCSHSPGCSSTQGNGRPG,4.55
15,PCAGSTSRSHSPGCSSTQGNGRPG,3.87
16,PCAGSTSGSHSPGCSSTQGNGRPG,4.25
17,PCAGSTSNSHSPGCSSTQGNGRPG,4.15
18,PCAGSTSYSHSPGCSSTQGNGRPG,4.95
19,PCAGSTSVSHSPGCSSTQGNGRPG,3.58
20,PCAGSTSTSHSPGCSSTQGNGRPG,4.15
21,PCAGSTSLSHSPGCGSTQGNGRPG,2.49
22,PCAGSTSLSHSPGCFSTQGNGRPG,2.83
23,PCAGSTSLSHSPGCESTQGNGRPG,3.55
24,PCAGSTSLSHSPGCHSTQGNGRPG,2.4

row,Variant,protein stability index
1,PCAGSTSLSHSPGCDSTQGNGRPG,4.31
2,PCAGSTSLSESPGCSSTQGNGRPG,5.05
3,PCAGSTSLSQSPGCSSTQGNGRPG,4.94
4,PCAGSTSLSASPGCSSTQGNGRPG,4.02
5,PCAGSTSLSLSPGCSSTQGNGRPG,4.39
6,PCAGSTSLSRSPGCSSTQGNGRPG,3.41
7,PCHGSTSLSHSPGCSSTQGNGRPG,4
8,PCKGSTSLSHSPGCSSTQGNGRPG,4.69
9,PCGGSTSLSHSPGCSSTQGNGRPG,3.4
10,PCSGSTSLSHSPGCSSTQGNGRPG,3.73
11,PCAGSTSLSHSPGCSSTYGNGRPG,2.75
12,PCAGSTSLSHSPGCSSTPGNGRPG,2.89
13,PCAGSTSLSHSPGCSSTDGNGRPG,2.98
14,PCAGSTSLSHSPGCSSTSGNGRPG,3.55
15,PCAGSTSLSHSPGCSSTMGNGRPG,3.01
16,PCAGSTSLSHSPGCSSTFGNGRPG,2.27
17,PCAGSTSLSHSPGCSSTGGNGRPG,3.53
18,PCAGSTSLSHSPGCSSTRGNGRPG,3.01
19,PCAGSTSLSHSPGCSSTQGNGRLG,3.24
20,PCAGSTSLSHSPGCSSTQGNGREG,3.39
21,PCAGSTSLSHSPGCSSTQGNGRMG,2.98
22,PCAGSTSLSHSPGCSSTQGNGRRG,3.22
23,PCAGSTSLSHSPGCSSTQGNGRDG,4.15
24,PCAGSTSLSHSPGCSSTQGPGRPG,2.51

row,Variant,protein stability index
1,PCAGSTSLSHSPGCSSTQGLGRPG,2.91
2,PCAGSTSLSHSPGCSSTQGSGRPG,3.1
3,PCAGSTSLSHSPGCSSTQGIGRPG,2.19
4,PCAGSTSLSHSPGCSSTQGFGRPG,2.66
5,PCAGSTSLSHSPGCSSTQGMGRPG,2.83
6,PCAGSTSLSHSPGCSSTQGTGRPG,2.35
7,PCAGSTSLSHSPGCSSTQGDGRPG,3.44
8,PCAGSTNLSHSPGCSSTQGNGRPG,3.43
9,PCAGSTKLSHSPGCSSTQGNGRPG,4
10,PCAGSTILSHSPGCSSTQGNGRPG,1.92
11,PCAGSTWLSHSPGCSSTQGNGRPG,3.05
12,PCAGSTFLSHSPGCSSTQGNGRPG,2.72
13,PCAGSTALSHSPGCSSTQGNGRPG,2.19
14,PCAGSTMLSHSPGCSSTQGNGRPG,1.82
15,PCAGSTSLDHSPGCSSTQGNGRPG,4.12
16,PCAGSTSLMHSPGCSSTQGNGRPG,3.48
17,PCAGSTSLGHSPGCSSTQGNGRPG,2.85
18,PCAGSTSLHHSPGCSSTQGNGRPG,2.36
19,PCAGSTSLRHSPGCSSTQGNGRPG,1.04
20,PCAGSTSLTHSPGCSSTQGNGRPG,3
21,PCAGSTSLFHSPGCSSTQGNGRPG,2.4
22,PCAGSTSLWHSPGCSSTQGNGRPG,2.66
23,PCAGATSLSHSPGCSSTQGNGRPG,2.98
24,PCAGGTSLSHSPGCSSTQGNGRPG,4.2

row,Variant,protein stability index
1,PCAGITSLSHSPGCSSTQGNGRPG,1.61
2,PCAGPTSLSHSPGCSSTQGNGRPG,2.15
3,PCAGRTSLSHSPGCSSTQGNGRPG,2.71
4,PCAGDTSLSHSPGCSSTQGNGRPG,4.27
5,PCAGWTSLSHSPGCSSTQGNGRPG,3.35
6,PCAGMTSLSHSPGCSSTQGNGRPG,2.9
7,PCAGYTSLSHSPGCSSTQGNGRPG,2.41
8,PCAGSTSLSHSPGCSSAQGNGRPG,3.08
9,PCAGSTSLSHSPGCSSYQGNGRPG,2.28
10,PCAGSTSLSHSPGCSSCQGNGRPG,1.47
11,PCAGSTSLSHSPGCSSKQGNGRPG,3.44
12,PCAGSTSLSHSPGCSSEQGNGRPG,3.47
13,PCAGSTSLSHSPGCSSTQGNGRPF,2.95
14,PCAGSTSLSHSPGCSSTQGNGRPM,2.82
15,PCAGSTSLSHSPGCSSTQGNGRPP,3.42
16,PCAGSTSLSHSPGCSSTQGNGRPA,3.38
17,PCAGSTSLSHSPGCSSTQGNGRPW,2.47
18,PCAGSTSLSHSPGCSSTQGNGRPV,2.68
19,PCAGSTSLSHSPGCSSTQGNGRPK,3.77
20,PCAGSTSLSHSPGCSSTQGNGRPS,3.22
21,PCAGSTSLSHSPGCSSTQGNGRPC,2.48
22,PCAGSTSLSHSPGCSSTQGNGRPE,2.65
23,PCAGSTSLSHSPGCSSTQGNGRPR,3.07
24,PCAGSTSLSHSPGCSSTQGNGRPI,3.09

row,Variant,protein stability index
1,PCAGSTSLSHSPGCSSTQGNGRPL,2.94
2,PCAGSTSLSHSPGKSSTQGNGRPG,5.01
3,PCAGSTSLSHSPGTSSTQGNGRPG,4.93
4,PCAGSTSLSHSPGASSTQGNGRPG,4.12
5,PCAGSTSLSHSPGPSSTQGNGRPG,4.48
6,PCAGSTSLSHSPGVSSTQGNGRPG,4.85
7,PCAGSTSLSHSPGFSSTQGNGRPG,4.71
8,PCAGSTSLSHSPGSSSTQGNGRPG,5.88
9,PCAGSTSLSHSPGRSSTQGNGRPG,3.86
10,PCAGSTSLSHSPGLSSTQGNGRPG,4.34
11,PCAGSTSLSHSPGYSSTQGNGRPG,3.83
12,PCAGSTSLSHSGGCSSTQGNGRPG,4.15
13,PCAGSTSLSHSRGCSSTQGNGRPG,2.92
14,PCAGSTSLSHSKGCSSTQGNGRPG,3.86
15,PCAGSTSLSHSNGCSSTQGNGRPG,4.11
16,PCAGSTSLSHSYGCSSTQGNGRPG,3.39
17,PCAGSTSLSHSVGCSSTQGNGRPG,3.15
18,PCAGSTSLSHSAGCSSTQGNGRPG,3.99
19,PCAGSTSLSHSEGCSSTQGNGRPG,4.43
20,PCAGSTSLSHSCGCSSTQGNGRPG,1.01
21,PCAGSTSLSHSHGCSSTQGNGRPG,3.9
22,PCAGSTSLSHSMGCSSTQGNGRPG,3.12
23,PCAGSRSLSHSPGCSSTQGNGRPG,4.93
24,PCAGSYSLSHSPGCSSTQGNGRPG,3.39

row,Variant,protein stability index
1,PCAGSESLSHSPGCSSTQGNGRPG,5.02
2,PCAGSWSLSHSPGCSSTQGNGRPG,2.84
3,PCAGSHSLSHSPGCSSTQGNGRPG,3.11
4,PCAGSSSLSHSPGCSSTQGNGRPG,2.77
5,PCAGSFSLSHSPGCSSTQGNGRPG,2.91
6,PCAGSTSLSHSPGCSYTQGNGRPG,2.02
7,PCAGSTSLSHSPGCSHTQGNGRPG,2.21
8,PCAGSTSLSHSPGCSGTQGNGRPG,3.74
9,PCAGSTSLSHSPGCSKTQGNGRPG,3.37
10,PCAGSTSLSHSPGCSFTQGNGRPG,2.87
11,PCAGSTSLSHSPGCSMTQGNGRPG,2.22
12,PCAGSTSLSHSPGCSRTQGNGRPG,4.34
13,PCAHSTSLSHSPGCSSTQGNGRPG,3.52
14,PCALSTSLSHSPGCSSTQGNGRPG,2.43
15,PCAQSTSLSHSPGCSSTQGNGRPG,4.2
16,PCATSTSLSHSPGCSSTQGNGRPG,3.71
17,PCAFSTSLSHSPGCSSTQGNGRPG,1.98
18,PCASSTSLSHSPGCSSTQGNGRPG,3.56
19,PCAKSTSLSHSPGCSSTQGNGRPG,4.38
20,ECAGSTSLSHSPGCSSTQGNGRPG,3.77
21,HCAGSTSLSHSPGCSSTQGNGRPG,2.48
22,ACAGSTSLSHSPGCSSTQGNGRPG,2.61
23,YCAGSTSLSHSPGCSSTQGNGRPG,2.96
24,MCAGSTSLSHSPGCSSTQGNGRPG,3.39

row,Variant,protein stability index
1,NCAGSTSLSHSPGCSSTQGNGRPG,4.33
2,DCAGSTSLSHSPGCSSTQGNGRPG,4.08
3,CCAGSTSLSHSPGCSSTQGNGRPG,4.16
4,PCAGSTSLSHSPGCSSTQNNGRPG,2.94
5,PCAGSTSLSHSPGCSSTQKNGRPG,3.48
6,PCAGSTSLSHSPGCSSTQDNGRPG,3.91
7,PCAGSTSLSHSPGCSSTQFNGRPG,3.15
8,PCAGSTSLSHSPGCSSTQLNGRPG,2.91
9,PCAGSTSLSHSPGCSSTQSNGRPG,3.84
10,PCAGSTSLSHSPGCSSTQENGRPG,3.8
11,PCAGSTSLSHSPGCSSTQTNGRPG,3.24
12,PCAGSTSLSHSPGCSSTQVNGRPG,3.19
13,PCAGSTSLSHSPGCSSTQANGRPG,3.65
14,PCAGSTSLSHSPGCSSTQQNGRPG,3.64
15,PCAGSTSLSHSPYCSSTQGNGRPG,2.53
16,PCAGSTSLSHSPKCSSTQGNGRPG,3.39
17,PCAGSTSLSHSPFCSSTQGNGRPG,2.93
18,PCAGSTSLSHSPNCSSTQGNGRPG,3.61
19,PCAGSTSLSHSPRCSSTQGNGRPG,3.6
20,PCAGSTSLSHSPHCSSTQGNGRPG,3.46

# Reference: the supplement of paper PMC10567573
